The target of the assay is VvWRKY8-mVenus (Vitis vinifera). Description: FRET or BRET; FRET with acceptor photobleaching; VvMYB14-mTRQ2 (donor) and VvWRKY8-mVenus (acceptor) from one pFRETtv-2in1-NN vector in agro-infiltrated tobacco leaves, 3 d after infiltration; bleaching with the 488-nm laser at 100% intensity, 15 frames.

The values below come from article PMC6322584.

VvMYB14-mTRQ2 (natural protein) registered an FRET efficiency of 38.5%.
